Measurements as given in article PMC11850899 (Communications Biology, 2025).
Read-outs that look alike come from different tables or passages of the source.

Columns and labels:
[1] = molecular target: the molecule itself; test: cryo-EM structure
[2] = molecular target: the molecule itself; test: cryo-EM structure; remark: listed apart in the source

Protein	stoichiometry N [1]	stoichiometry N [2]
Bacillus subtilis DSR2 (defense-associated sirtuin 2), wild type (enzyme) MVKVDLESKRYGEKLKEVFLMLDNNVVECIKEITESSRNGKLVFFVGAGVSTLSDYPQWWRLVDKYHEELYGSPKKGNYSSDEYLRIPQIFYNVKGEMAFDGILKDFFQVDKPTNPIHDKILAMNPAHVITTNYDNLIDTACWKRGKYFSVISAEEDVANATSSRYLLKVHGDFRKGFKGENVVLKEDDYLNYDQNYPLISNLMKTIIATHTIVFIGYGLGDYNINMLLNWVRKLQKDSFHKPFFIRTDPSPIENETLIYYENKGLRIIDAASLIDSNEYDYLERYSAVMDLLIESQENKFITKDDEVIDYIYGKISPLFALQYIRKIDLKHVFEYDYHFEVNGTVVRHKNKGFGYMERFFELKESCDERSKLSKKQYERFNALFNFFEKNGVICMAKDAGTLNTSIEINSLAYHGKYDVMKKFIEEQSVSIEDDYKKAFFLACLGRWEESYDLYSNIILNSIDESNGCVYYLSQINRYRIYQSITQAVTQFNGLGLLTFGRHYKPFTDEFLARIEREMTNFNIDDLFNGMPFEFQKKYKILEFLSDNQFLYDDTVKLFELTNKVRSEMSEGSYSFGMSSDIVVLLRLYDNLRFLYENCLWSVSFHEFHQYIRNSMSLLIEKAEYERTRDIDELGFSFFGKKSGFFMEYYDFVNISRHFKIDDIKNLERSCSIDKIRFGEQEKIEEYLVGIAEEITKQFSANGMNVVFYTQFISEAKAALYFAKYVKLSEEGLGKIVKALLFYFPERDLDIGKRYVWLERLTKCNELPKSIISIIDDFLVLQAEKHIDQNYSEVSSNGLYSRDYGALIKHFEKNFISKRLSEITLCLTQDKQKQIDFLFKLLPLLSTNAKSHLLSFKSVENINDLMNGIRIGLIDEFTPEHEELIIEYLETRKVNYIVEKEKGIQTFSSNDYMSTFGIWYFLEEINNSKMEEFIGMDDQYDFFVDPENFDYKKFIPSWLKNYNDKLLGKIAGNKHMKHHVIEVLKERVKNSNDKRYLEILMNYFI	4	–
Bacillus subtilis DSR2 H171A (catalytic mutant) (enzyme, UniProt P0DXN8 1-1005, looked up) MVKVDLESKRYGEKLKEVFLMLDNNVVECIKEITESSRNGKLVFFVGAGVSTLSDYPQWWRLVDKYHEELYGSPKKGNYSSDEYLRIPQIFYNVKGEMAFDGILKDFFQVDKPTNPIHDKILAMNPAHVITTNYDNLIDTACWKRGKYFSVISAEEDVANATSSRYLLKVAGDFRKGFKGENVVLKEDDYLNYDQNYPLISNLMKTIIATHTIVFIGYGLGDYNINMLLNWVRKLQKDSFHKPFFIRTDPSPIENETLIYYENKGLRIIDAASLIDSNEYDYLERYSAVMDLLIESQENKFITKDDEVIDYIYGKISPLFALQYIRKIDLKHVFEYDYHFEVNGTVVRHKNKGFGYMERFFELKESCDERSKLSKKQYERFNALFNFFEKNGVICMAKDAGTLNTSIEINSLAYHGKYDVMKKFIEEQSVSIEDDYKKAFFLACLGRWEESYDLYSNIILNSIDESNGCVYYLSQINRYRIYQSITQAVTQFNGLGLLTFGRHYKPFTDEFLARIEREMTNFNIDDLFNGMPFEFQKKYKILEFLSDNQFLYDDTVKLFELTNKVRSEMSEGSYSFGMSSDIVVLLRLYDNLRFLYENCLWSVSFHEFHQYIRNSMSLLIEKAEYERTRDIDELGFSFFGKKSGFFMEYYDFVNISRHFKIDDIKNLERSCSIDKIRFGEQEKIEEYLVGIAEEITKQFSANGMNVVFYTQFISEAKAALYFAKYVKLSEEGLGKIVKALLFYFPERDLDIGKRYVWLERLTKCNELPKSIISIIDDFLVLQAEKHIDQNYSEVSSNGLYSRDYGALIKHFEKNFISKRLSEITLCLTQDKQKQIDFLFKLLPLLSTNAKSHLLSFKSVENINDLMNGIRIGLIDEFTPEHEELIIEYLETRKVNYIVEKEKGIQTFSSNDYMSTFGIWYFLEEINNSKMEEFIGMDDQYDFFVDPENFDYKKFIPSWLKNYNDKLLGKIAGNKHMKHHVIEVLKERVKNSNDKRYLEILMNYFI	–	4
